Test results: publication PMC7363131

Target: S. venezuelae WhiD (SvWhiD), N-terminally His6-tagged, full length (S. venezuelae)
Experiment: native MS; nondenaturing ESI-MS, 250 mM ammonium acetate, pH 7.2; SvWhiD alone (10 μM) or a 2:1 mixture of σ^HrdB4 and SvWhiD

S. venezuelae WhiD (SvWhiD), N-terminally His6-tagged, full length (natural protein)
stoichiometry N: 2
